Source: patent US20040259198A1, “Purified and isolated mat II beta subunit nucleic acids and polypeptides and therapeutic and screening methods using same” (priority 1999, published 2004)
Read-outs that look alike come from different tables or passages of the source.

Columns and labels:
[1] = MAT assay of recombinant MAT II β subunit protein alone; assay type: biochemical
Procedure: MAT activity was assayed as previously described (22,29,31). The assay contained 5-120 μM L-methionine (L-Met), 5 mM ATP in 50 mM TES buffer, pH 7.4,50 mM KCl, 15 mM MgCl2, 0.3 mM EDTA, and 4 mM DTT. The L-Met concentration was varied as indicated in the kinetic analysis. One unit (U) of MAT activity is defined as the amount of enzyme that catalyzes the formation of 1 nmol of AdoMet in 1 hour.

E. coli MAT α protein = E. coli MAT α protein (Escherichia coli, UniProt P0A817); settings: Ni-NTA agarose, native conditions
Procedure: The MAT II β expression clone, Clone 5, was inoculated into one liter of LB broth containing 25 μg/ml kanamycin and 100 μg/ml ampicillin, then incubated with shaking at 37° C. until an OD600 of 0.5-0.7 was reached. IPTG (Sigma) was added to a final concentration of 1 mM, and the culture was allowed to incubate for an additional 4 hours under the same conditions. […] The first, involved purification of the His-tagged protein under denaturing conditions of 8M urea, and the second involved separation of SDS-PAGE and elution of the β subunit protein from the gel.

MAT II = assay: MAT activity and kinetics in extracts of transfected Cos-1 cells; assay type: biochemical, African green monkey
Procedure: Transfection of Cos-1 cells with pTargeT™/MAT2A or pTargeT™/MAT2B was done using the cationic lipid reagent, Transfast™ (Promega). Preliminary experiments were carried out to optimize the transfection conditions. Typically, 1.5×10^6 cells were plated in 100 mm dish one day prior to transfection. For each plate, […] of vector DNA was applied in the ratio of 1:1 to Transfast™ in a protein-free medium for 2 h. For cells co-transfected with both α2 and β vectors, […] DNA from each was used. For each experiment, one untransfected plate served as a normal control, and a second plate was transfected with the pTargeT™ vector only (mock-transfected cells). After 48 h, cells were harvested by trypsinization with a solution containing 0.05% trypsin and 0.53 mM EDTA in Hank's balanced salt solution (HBSS, from Cellgro). Trypsinization was stopped by the addition of media supplemented with 10% FCS, cells were pelleted, washed three times in 1 ml HBSS, counted, then resuspended in 1× extraction buffer with protease inhibitors (50 mM Tris, pH 7.4, 100 mM NaCl, 5 mM MgCl2, 4 mM dithiothreitol, 0.1 IU/ml aprotinin, 0.5 mM PMSF and […] soybean trypsin inhibitor). Cells were lysed by three cycles of quick freezing and thawing, and the lysate was clarified by centrifugation at 15,000×g for 10 min at 4° C. If not immediately used; cell extracts were stored at −80° C. Protein assays were performed using the bicinchoninic acid reagent (Sigma) following the manufacturer instructions.
MAT activity in cell extracts was assayed as previously described (Kotb, M., and Kredich, N. M. (1985) J. Biol. Chem. 260, 3923-30). […] The concentration of L-Met was varied between […] using ^14C-L-Met (57.9 mCi/mmol) to a concentration of up to […], and supplementary with cold L-Met for higher concentrations.

Chain of E. coli MAT α protein (Q9NZL9 whole entry): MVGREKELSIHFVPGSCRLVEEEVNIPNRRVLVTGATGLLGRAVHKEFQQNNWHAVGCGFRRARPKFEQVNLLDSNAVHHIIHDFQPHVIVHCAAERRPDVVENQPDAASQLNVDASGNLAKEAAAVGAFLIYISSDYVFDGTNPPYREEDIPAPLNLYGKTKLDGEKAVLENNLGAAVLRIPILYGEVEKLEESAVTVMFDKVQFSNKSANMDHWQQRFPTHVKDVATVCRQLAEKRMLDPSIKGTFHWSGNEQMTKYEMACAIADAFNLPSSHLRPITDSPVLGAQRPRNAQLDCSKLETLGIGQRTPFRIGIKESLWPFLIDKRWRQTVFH
Chain of E. coli MAT α protein (P0A817 2-384): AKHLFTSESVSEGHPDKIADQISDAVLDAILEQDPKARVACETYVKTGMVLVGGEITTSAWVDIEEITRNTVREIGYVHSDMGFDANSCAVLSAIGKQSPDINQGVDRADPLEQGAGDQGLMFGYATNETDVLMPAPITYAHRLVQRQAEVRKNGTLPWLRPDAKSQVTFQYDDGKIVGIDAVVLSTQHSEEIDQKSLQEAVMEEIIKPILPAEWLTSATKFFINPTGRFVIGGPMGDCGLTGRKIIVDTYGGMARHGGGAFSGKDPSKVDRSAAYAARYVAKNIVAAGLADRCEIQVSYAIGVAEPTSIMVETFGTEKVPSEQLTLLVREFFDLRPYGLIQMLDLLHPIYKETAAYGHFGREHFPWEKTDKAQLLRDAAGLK

B1: MAT II β subunit: recombinant regulatory β subunit of human methionine adenosyltransferase II, 334 amino acids, expressed in E. coli or Cos-1 cells (protein, UniProt Q9NZL9 2-334, looked up)
Methionine …: VGREKELSIHFVPGSCRLVEEEVNIPNRRVLVTGATGLLGRAVHKEFQQNNWHAVGCGFRRARPKFEQVNLLDSNAVHHIIHDFQPHVIVHCAAERRPDVVENQPDAASQLNVDASGNLAKEAAAVGAFLIYISSDYVFDGTNPPYREEDIPAPLNLYGKTKLDGEKAVLENNLGAAVLRIPILYGEVEKLEESAVTVMFDKVQFSNKSANMDHWQQRFPTHVKDVATVCRQLAEKRMLDPSIKGTFHWSGNEQMTKYEMACAIADAFNLPSSHLRPITDSPVLGAQRPRNAQLDCSKLETLGIGQRTPFRIGIKESLWPFLIDKRWRQTVFH
MAT catalytic activity [1]: no MAT catalytic activity
association / co-purification with E. coli MAT α (E. coli MAT α protein; listed as recombinant MAT II β subunit protein): associated spontaneously
association / co-purification with E. coli MAT α (E. coli MAT α protein; listed as recombinant human MAT II β subunit protein): co-purifying
effect on the Km for L-Met of the endogenous MAT II (MAT II; expression in Cos-1 cells): no effect
effect on MAT (specific) activity (MAT II; expression in Cos-1 cells, result in words): increase
Km (MAT II; extracts of Cos-1 cells transfected with β or co-transfected with α2 and β, single kinetic form, read-out: Km for L-Met): 20 µM
increase in MAT activity (MAT II; transfected Cos-1 cell extracts compared to untransfected (or mock-transfected) cells): ~2 fold
